# From the DeepSol protein solubility set
# Assay: soluble on expression in E. coli; label from the status in PepcDB or PDB records
row,Sequence,soluble on expression in E. coli
1,MNTVRSEKDSMGAIDVPADKLWGAQTQRSLEHFRISTEKMPTSLIHALALTKRAAAKVNEDLGLLSEEKASAIRQAADEVLAGQHDDEFPLAIWQTGSGTQSNMNMNEVLANRASELLGGVRGMERKVHPNDDVNKSQSSNDVFPTAMHVAALLALRKQLIPQLKTLTQTLNEKSRAFADIVKIGRTHLQDATPLTLGQEISGWVAMLEHNLKHIEYSLPHVAELALGGTAVGTGLNTHPEYARRVADELAVITCAPFVTAPNKFEALATCDALVQAHGALKGLAASLMKIANDVRWLASGPRCGIGEISIPENEPGSSIMPGKVNPTQCEALTMLCCQVMGNDVAINMGGASGNFELNVFRPMVIHNFLQSVRLLADGMESFNKHCAVGIEPNRERINQLLNESLMLVTALNTHIGYDKAAEIAKKAHKEGLTLKAAALALGYLSEAEFDSWVRPEQMVGSMKAGRHHHHH,soluble
2,MTQFTTELLNFLAQKQDIDEFFRSSLETAMNDLLQVELSAFLGYEPYDKAGYNTGNSRNGAYTRRFETKYGVVNLLIPRDRNGEFSPALIPSYGRRDNHLEEMVIKLYRTGVTTREISDIIERMYGHHYSPATVSNISKATQENVASFHERSLEANYTVLYLDGTYLPLRRGTVSKECIHIALGVTSYGHKAILGYDIAPNENNASWSDLLERFKGQGVQQVSLVVSDGFNGLDQLIQQAFPMAKQQRCLVHIGRNIASKVKRADRALILEQFKTIYRAINVEEAKQALDSFINEWKPHYKKVIETLESIENLLIFYEFPHQIWGSIYSTNLIESLNKEIKRQTKKKVVFPNEESLERYLVTLFSDYNFKQGQRIHKGFGQCTDTLESLFD,not soluble
3,MGSDKIHHHHHHSDFLNLTPYSEITAENFYQNEEDFRQAVNGAYEPLRNMYNTEEWNLGEAKSDNTTYIIHIAKSSLDGEDPDQFLETSTNGNVGTKYNNCYVIIGRCNRIISEIDQADFDAEAKSNLKGQALFLRAFCYFNLVQYFGGVPLHTTPSTVYEEAFKPRASVDEVYEQIMKDAQEASDLLPVKSRQEVGRVSKGSAQTLLGNVYMVLKRWAEAEQTLKEVVSSGEYELLADYGSIYSISNKNHKESIFEIQYMQDASLGQQSDFIYRFLPYMTNPSAITGTTPNPCPSNVDHGGFNTPTIDLINAYEKGDKRLDASIGMVEGKLTDSYALDATGVKSIVDYEPAPGITAYPFIKKYFHEHIKPYYTDDNWPVYRYAEVLLFLAEAINEQNRPDEAIHYLNDTFGQASIRGRAGLAPVKSQNVDALREAIYQERRIELAFENKRWTDLLRTGRAVEVMTRHGQKIKANPESYYWPDGVQPVANAYLFNPDKCLLPIPLREIDLNSELKQNPGY,not soluble
4,MGSDKIHHHHHHMKIARLNLWHVPLTSHTAYYMADGKTCDTVETVVIAVQTDTGITGWGEVCPIPHYLPAYARGVAPALTELAPVILGADPVGVGALMERVDAVLHGHPYAKSALDIALWDITGQVAGLPLHALLGGWRAADMPLYHSITCIAPDDMARIAREAQAQGITQFQVKLGASGDWQTDVERLAKVREAVGPGPLVYGDWNCGATSLEAIRVGRAVAQLDIMLEQPCATLEDCARVQRATGLPMKIDELAHDTASLLTAHRLGIMDAVALKLSKFGGLSTTRRARDLCLHLGARMCIEDTWGSDITTAALLHLGAASEPGRVLNVCDLSGYVAPRLAPDAPVRANGRIAPPEGAGLGITVDRGALGVPDLILD,not soluble
5,MSLATISKITVQKKAKQRYNVFIGKPGAERFAFSVDEAILVKYGLRKGLELDENEIKALIEADELKKTHHLALHYLSYRMRTEKEIRDYLKEKDRLDEHIEKTIVSLKAEKLIDDRAFAEAFARSKTAQTLIGPNKIRQQLLQKGVNAEAMAKALSPYQIKWQIDVLTAWLDKQERRAVNRRESNEQLKQKRTHQLLAKGFEYEAIQAALANREANEDNEWEALVYQGEKLLKSYVKKYNGRELTYKLKQALYRKGFALSKIDRFLQTEMEGEEGHHHHHH,soluble
6,VDIYASMTPAKDVGGDFYDFFQIDDERIGLVIADVSGKGVPASLFMAVSRTLLRATALRGVSSAECLTYANKLLCKESLDSMFVTVFYGIYHYKTGMMDYTNAGHNPPYLLRGGRTVECLPVASNFVVGVFDDIEFESNTLTFGIGDTLLLYTDGVTEAFNDKREQFSESNLQDILASMHESSSAKEVVTSVLQSVKTFSGDYPQSDDITLLSLQRIK,not soluble
7,MSRCPEDSRTGNGRNGAPDPGELSAMVRKLEIRSRRLVNELFSGEYHSSFKGRGIEFSQVREYQYGDDVRTIDWNTSAHKNDLYVKIFTEERERILMLVLDGSGSMLFGSGRLKKELAAEVSAILAFSAVQNNDMVGLLVFSDTVETYIPPRKGRAHALVILNEIFSMRQCGRKTDIDAALSFLRRTQKRKSIIFLLTDLLGSEYERGMKLLNARHEFVLIHIGDPLDHELPHSGLLDLVDPETGERLTIDAGSRAFLARYAKEQRAKREAVQRQLSRMKVDAVFLDTGKSIIGGLNAFFRHRERKV,not soluble
8,PLGSDHWGKGDMSDEDDENEFFDAPEIITMPENLGHKRTGSHHHHHH,soluble
9,MIHEVAGDGTKRSFHEKKKMDESYQRNGRTNLEHVPRLKLGKLFIFISASTNKTCLQIDNEITNN,not soluble
10,MNNPEESAVTDLRKFTNLVLNGLVDEEATAAALIRYQFQQRTIKDVVRRGSEDPELKAQICDLLNHLVIYLNEEIVETSSKACPDGMDDRHFVQLEKRMHLMFEVYLAMNVVPDYLIPDLTKHVDASREAVKYSYSLCKDYYRWKELPLTLKEFFLDEKEEVKAVVDEPEPTMFARDDGVVSSLAHEKAQSDEDGKKKQFVAKTEKVLNNYRAKNPDYRTMRELINAKTKFRLEGIYCDSLIDDFISVWDMAIDIEPVKTEDKFAFTSLLKKVFLMMVDKRRNDFASKILDKYNNDASGVLPCLDNFVENFQTGLTAAINNLPLDANVLSNNMELFEKAKDPIIWYLLISPAYTVQQILLICVDNKGYVPLVSRIFRAIPTLFERSVNLTPMHFEGFKTQKLLITILHRVFIIGRTTWTSASQWENAAMMTMSFAKERKRKEGQPEKVEDKALLDSFSLVNFALNELFKDYRKPLKAVEIFVKMLQRLLANNNNARMLTNYQFSSSFFDDGNNYLPTSIIMLLMFDLLVEYDGQSNEVCDGARDILKSVSGRLNNDNIIFDTDTCRHLIDEKLNYAPWWIKYSICSWFSSSLQNPKKQVPSGVYKTIAEQHLDEFEQIKPEEVSTVSDCYFRSLFELGLFDVDLAIELLQYGHVAKFESSVVEKIALALVDSYGKKMSKRSGGLDIGKLIISMLQNSSYLESVKKIEHILVLFMAARIAKEKQLSAARVRTDDTIQTAYDEVISLNQVSDQLMDIFCETTKAHVDKEVMEVEQMRREVEVLLFSTPGTTPNQFKAMVEKENREQSLALQLSMIYLNCSYFCRLYQQVPIKLQQLMNSTLEKQFDSQKFLAKKVMDDVLTEKRKTEVVYAFVDTPVEPTPNEDNIQPVKPAELFRPPVVENVSVESTTYNSNGGGYRQGRYQTGYQGKNRRSNFEQPTSSRGSGRSDRTYAYKGNRFQPVNDSHVFAPRERENVYQNSSHDRDIPRNDYSEYDQEKLYLDDKQPRFHSENRNSNDVRRYSESKDSKYDNKNWNNRSSRWPSESEYSQEDSENRHLDQTIQSVRKFSYRENQQKHNRPGTSSASPPKNQEWKQHQQQKKSFGGGFGENGNKFNGNSRKQPERKPRYTSSNFYEQDEDSLQLLKPDRNELAQAMGLNDPPNPPKPRRSEWTRR,not soluble
11,MNEQAILQSAEAWVKKQLMDEYSGHDWYHIRRVTLMAKAIGEQEKVDVFVVQIAALFHDLIDDKLVDDPETAKQQLIDWMEAAGVPSQKIDHTMDIINTISFKGGHGQSLATREAMVVQDADRLDALGAIGIARTFAYSGNKGQPIYDPELPIRETMTVEEYRHGKSTAINHFYEKLFKLKDLMNTETGKQLAKERHVFMEQFIERFLSEWNGDMLEHHHHHH,soluble
12,MSPIEKSSKLENVCYDIRGPVLKEAKRLEEEGNKVLKLNIGNPAPFGFDAPDEILVDVIRNLPTAQGYCDSKGLYSARKAIMQHYQARGMRDVTVEDIYIGNGVSELIVQAMQALLNSGDEMLVPAPDYPLWTAAVSLSSGKAVHYLCDESSDWFPDLDDIRAKITPRTRGIVIINPNNPTGAVYSKELLMEIVEIARQHNLIIFADEIYDKILYDDAEHHSIAPLAPDLLTITFNGLSKTYRVAGFRQGWMVLNGPKKHAKGYIEGLEMLASMRLCANVPAQHAIQTALGGYQSISEFITPGGRLYEQRNRAWELINDIPGVSCVKPRGALYMFPKIDAKRFNIHDDQKMVLDFLLQEKVLLVQGTAFNWPWPDHFRIVTLPRVDDIELSLSKFARFLSGYHQL,soluble
13,MEDYANISKGKEKFFPHCFYGRCCARRMLCDANVFPYALPVEANSLKEQAPCLKDEECDLFPDFLGTCVHHQNVTNILENRRFKYFPTNNNVKPKGYGMCCYSKKSSICSTGGTPFEVELSDGPCSNHIDCNPDELPFKWNAYCSQNAKSNMCCRDTLVDSLCPDGFTPYRTQQKCEGYHPLSKSSGKCPKSNGMCHRGHCCPRLTIDEARKATPYHLNYVTDTQCDPTEPLDFVYRWAFCDEIEEKIVVMGDRNADGTELNWQQSRCTINR,not soluble
14,MRQHRPALELSRLPELLSRIDGYKGQPVTRLAVMLNLLVFIRSSELRYARWSEIDIDNSMWTIPAEREPLPGVKFSHRGSKMRTPHLVPLSKQVVAILAELQTWAGENGLIFTGAHDPRKPISENTVNKALRVMGYDTTQEVCGHGFRAMACSALIESGLWSRDAVERQMSHQELEHHHHHH,not soluble
15,MTTRQIKIVPKLIAIFTGKAAVRAAWGGRGSGKTRSFALMAALKGYQFGMGGISGTILCARQFQNSLAESSLEEIKRAIEGHDFLKDYYKVGESSIKSIDGRIAFQFSGLDRNIASIKSMGRILLCWVDEAEPVTETAWQTLIPTLREEGEGWRAELWVTWNPLRDNAPVERRFRFSNNEAIKRVEINWSDNPKFPKILNEARLDDLKNRPETYKHIWEGAYLTAVQGAYYQKEMLAAEQEGRIGRVARDPLMQMRAFWDIGGTGAKADATAIWIAQFVGREIRVLDYYEAQGQPLSEHIGWLRRNGYEKALMVLPHDGATRDRVHNVSFESALNDAGFETQVIPHQGAGAVKMRIEAVRRILPSVWFHEETTVAGRKALNWYHEKWDEKRGIGLGAEHDWSSHGADAFGLMCIVYEAPRIKPQQERYRAIEREAASWMAF,not soluble
16,MSLSGMELSYRRSDLIFKRPAGTSRGVLTSKPTWFVRLDIDGHGGQGEVSLIPGLSLDPEEQIGRELDLLARRLRAEEPIRLRQFLAERGGADFSDYRSVLTDIAGILDSWQVSTDGRFPALRFALEMALLDLLSGGRQEWFASDFTRGEKRIPVNGLIWMGEAAFMQEQIEAKLAEGYGCLKLKIGAIDFDKECALLAGIRESFSPQQLEIRVDANGAFSPANAPQRLKRLSQFHLHSIEQPIRQHQWSEMAALCANSPLAIALDEELIGLGAEQRSAMLDAIRPQYIILKPSLLGGFHYAGQWIELARERGIGFWITSALESNLGLAAIAQWTALYQPTMPQGLGTGQLYTNNLPSNLAVDGGLLGVSEGHHHHHH,soluble
17,MNQWLKKKRESLGYTQESFAKEIGIAKTTYSSYEQGYRNPTVQTAKKMAKILQVPWTIFFDEEVLETYDF,not soluble
18,ACGYSDRVLQLTLGNSTITTQEAANSVVAYGRWPEFIRDDEANPVDQPTEPDVATCRFYTLDTVMWGKESKGWWWKLPDALRDMGLFGQNMYYHYLGRSGYTVHVQCNASKFHQGALGVFAIPEYCLAGDSDKQRYTSYANANPGERGGKFYSQFNKDNAVTSPKREFCPVDYLLGCGVLLGNAFVYPHQIINLRTNNSATIVLPYVNALAIDSMVKHNNWGIAILPLSPLDFAQDSSVEIPITVTIAPMCSEFNGLRNVTAPKFQ,soluble
19,MLLVSDIQTIQPSLNSVNEGGQKIKNEAEPEFASRLETELKELNTQWDHMCQQLEHHHHHH,not soluble
